Key:
[1] = molecular target: human intestinal alkaline phosphatase (human) (UniProt P09923); assay: immunoblot, serial dilution of human small intestinal lysate; 7.5 µg lysate loaded
[2] = molecular target: human intestinal alkaline phosphatase (human) (UniProt P09923); assay: immunoblot, serial dilution of human small intestinal lysate; 3.75 µg lysate loaded
[3] = molecular target: human intestinal alkaline phosphatase (human) (UniProt P09923); assay: immunoblot, serial dilution of human small intestinal lysate; 0.059 µg lysate loaded
[4] = molecular target: human intestinal alkaline phosphatase (human) (UniProt P09923); assay: immunoblot, serial dilution of human small intestinal lysate; 0.938 µg lysate loaded
[5] = molecular target: human intestinal alkaline phosphatase (human) (UniProt P09923); assay: immunoblot, serial dilution of human small intestinal lysate; 0.117 µg lysate loaded
[6] = molecular target: human intestinal alkaline phosphatase (human) (UniProt P09923); assay: immunoblot, serial dilution of human small intestinal lysate; 0.029 µg lysate loaded
[7] = molecular target: human intestinal alkaline phosphatase (human) (UniProt P09923); assay: immunoblot, serial dilution of human small intestinal lysate; 0.469 µg lysate loaded
[8] = molecular target: human intestinal alkaline phosphatase (human) (UniProt P09923); assay: immunoblot, serial dilution of human small intestinal lysate; 1.875 µg lysate loaded
[9] = molecular target: human intestinal alkaline phosphatase (human) (UniProt P09923); assay: immunoblot, serial dilution of human small intestinal lysate; 0.234 µg lysate loaded
[10] = molecular target: human intestinal alkaline phosphatase (human) (UniProt P09923); assay: immunoblot, serial dilution of human small intestinal lysate; 0.015 µg lysate loaded

Sequence of UniProt P09923 (P09923 20-503 limits assumed): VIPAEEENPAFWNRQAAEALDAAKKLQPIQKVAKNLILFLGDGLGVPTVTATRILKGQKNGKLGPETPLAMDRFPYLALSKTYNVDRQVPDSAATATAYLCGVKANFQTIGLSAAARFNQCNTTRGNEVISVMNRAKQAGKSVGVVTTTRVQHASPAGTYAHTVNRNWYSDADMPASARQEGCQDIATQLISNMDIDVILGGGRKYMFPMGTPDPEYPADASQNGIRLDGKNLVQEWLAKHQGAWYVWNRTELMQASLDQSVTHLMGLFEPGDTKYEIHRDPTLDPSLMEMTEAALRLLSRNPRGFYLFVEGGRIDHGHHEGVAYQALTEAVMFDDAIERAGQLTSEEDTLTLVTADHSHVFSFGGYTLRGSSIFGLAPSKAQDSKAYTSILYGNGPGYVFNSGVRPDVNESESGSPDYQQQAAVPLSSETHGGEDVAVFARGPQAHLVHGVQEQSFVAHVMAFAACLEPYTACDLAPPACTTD

mean relative fluorescence units for the total iAP (relative fluorescence units) [1]: 217000 | mean relative fluorescence units for the total iAP (relative fluorescence units) [2]: 234000 | mean relative fluorescence units for the total iAP (relative fluorescence units) [3]: 4920 | mean relative fluorescence units for the total iAP (relative fluorescence units) [4]: 143000 | mean relative fluorescence units for the total iAP (relative fluorescence units) [5]: 18200 | mean relative fluorescence units for the total iAP (relative fluorescence units) [6]: 1160 | mean relative fluorescence units for the total iAP (relative fluorescence units) [7]: 75700 | mean relative fluorescence units for the total iAP (relative fluorescence units) [8]: 211000 | mean relative fluorescence units for the total iAP (relative fluorescence units) [9]: 44100 | mean relative fluorescence units for the total iAP (relative fluorescence units) [10]: 227
Substance: primary rabbit polyclonal antibodies against human iAP (Abcam, ab7322) (antibody)

— patent US20240393333A1
